Measurements published in PMC8467012.
Values belong to the binder of their own block, whether it stands above or below them.

Biological target: ErbB3 receptor on cancer cells (human (endogenous in MCF-7, SK-BR-3, BT-474, Hep G2)) (UniProt P21860)
Sequence (P21860 20-1342): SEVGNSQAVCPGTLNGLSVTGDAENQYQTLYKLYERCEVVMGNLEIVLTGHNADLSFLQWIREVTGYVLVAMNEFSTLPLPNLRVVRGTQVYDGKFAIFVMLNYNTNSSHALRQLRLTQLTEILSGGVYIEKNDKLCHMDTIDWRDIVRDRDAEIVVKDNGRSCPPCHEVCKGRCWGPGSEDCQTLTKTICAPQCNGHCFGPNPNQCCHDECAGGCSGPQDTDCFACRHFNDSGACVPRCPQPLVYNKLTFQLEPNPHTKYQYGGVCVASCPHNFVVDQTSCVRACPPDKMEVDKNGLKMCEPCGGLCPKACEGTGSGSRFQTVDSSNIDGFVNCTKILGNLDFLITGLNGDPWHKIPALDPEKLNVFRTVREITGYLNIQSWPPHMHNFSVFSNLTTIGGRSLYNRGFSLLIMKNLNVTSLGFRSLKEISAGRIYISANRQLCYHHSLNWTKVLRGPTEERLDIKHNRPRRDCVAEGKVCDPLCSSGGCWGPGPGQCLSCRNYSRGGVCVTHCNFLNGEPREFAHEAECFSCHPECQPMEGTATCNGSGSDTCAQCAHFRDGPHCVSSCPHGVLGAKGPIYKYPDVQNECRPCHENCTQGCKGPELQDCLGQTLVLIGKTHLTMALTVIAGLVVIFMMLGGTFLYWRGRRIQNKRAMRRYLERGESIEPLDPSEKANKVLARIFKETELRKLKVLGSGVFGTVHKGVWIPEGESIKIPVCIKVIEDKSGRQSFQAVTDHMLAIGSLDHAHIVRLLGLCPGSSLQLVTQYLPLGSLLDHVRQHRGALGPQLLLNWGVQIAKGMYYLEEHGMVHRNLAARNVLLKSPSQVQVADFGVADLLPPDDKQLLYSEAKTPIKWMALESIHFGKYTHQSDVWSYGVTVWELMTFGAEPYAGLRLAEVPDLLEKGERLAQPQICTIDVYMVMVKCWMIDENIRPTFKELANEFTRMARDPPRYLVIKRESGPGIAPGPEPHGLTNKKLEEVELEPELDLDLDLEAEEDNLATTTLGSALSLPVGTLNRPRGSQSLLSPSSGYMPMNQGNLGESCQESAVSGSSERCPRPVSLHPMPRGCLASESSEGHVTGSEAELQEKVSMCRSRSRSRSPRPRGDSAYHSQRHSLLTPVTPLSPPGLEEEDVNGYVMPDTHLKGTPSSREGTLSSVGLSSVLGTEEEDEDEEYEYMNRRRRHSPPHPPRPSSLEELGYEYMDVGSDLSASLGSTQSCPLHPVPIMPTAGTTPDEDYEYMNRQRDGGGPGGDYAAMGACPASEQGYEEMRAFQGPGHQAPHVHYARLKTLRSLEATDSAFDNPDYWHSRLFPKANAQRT

- EC50 of inhibition of heregulin-driven proliferation of MCF-7 cells (MTS, 5 days, 50 ng/mL heregulin-1β): 0.1 µg/mL
- EC50 of inhibition of proliferation of SK-BR-3 cells (MTS, 5 days, 50 ng/mL heregulin-1β): 15 µg/mL
B1: BCD090-P1 (VHH)
VHH: EVQLVQSGGGLVQPGGSLRLSCAASGRTSSKYAMGWFRQAPGKGTEFVATISWSDGSTYYADSVEGRFTISRDNAKNTVYLQMNSLKPEDTAVYYCAAAVDVLAGTFEYEYDYWGQGTLVTVSS

- EC50 of inhibition of heregulin-driven proliferation of MCF-7 cells (MTS, 5 days, 50 ng/mL heregulin-1β); blocks heregulin binding to ErbB3: 25 µg/mL
- EC50 of inhibition of proliferation of SK-BR-3 cells (MTS, 5 days, 50 ng/mL heregulin-1β); blocks heregulin binding to ErbB3: 3 µg/mL
B2: BCD090-M2 (VHH)
VHH: QVQLVQSGGGLVQAGGSLRLSCAFSGRTFSMYTMGWFRQAPGKEREFVAANRGRGLSPDIADSVNGRFTISRDNAKNTLYLQMDSLKPEDTAVYYCAADLQYGSSWPQRSSAEYDYWGQGTTVTVSS
